For this test, the target named is T1, TRPV2-MBP (wild-type TRPV2 with an N-terminal maltose binding protein tag), Q9WUD2.
T1 chain: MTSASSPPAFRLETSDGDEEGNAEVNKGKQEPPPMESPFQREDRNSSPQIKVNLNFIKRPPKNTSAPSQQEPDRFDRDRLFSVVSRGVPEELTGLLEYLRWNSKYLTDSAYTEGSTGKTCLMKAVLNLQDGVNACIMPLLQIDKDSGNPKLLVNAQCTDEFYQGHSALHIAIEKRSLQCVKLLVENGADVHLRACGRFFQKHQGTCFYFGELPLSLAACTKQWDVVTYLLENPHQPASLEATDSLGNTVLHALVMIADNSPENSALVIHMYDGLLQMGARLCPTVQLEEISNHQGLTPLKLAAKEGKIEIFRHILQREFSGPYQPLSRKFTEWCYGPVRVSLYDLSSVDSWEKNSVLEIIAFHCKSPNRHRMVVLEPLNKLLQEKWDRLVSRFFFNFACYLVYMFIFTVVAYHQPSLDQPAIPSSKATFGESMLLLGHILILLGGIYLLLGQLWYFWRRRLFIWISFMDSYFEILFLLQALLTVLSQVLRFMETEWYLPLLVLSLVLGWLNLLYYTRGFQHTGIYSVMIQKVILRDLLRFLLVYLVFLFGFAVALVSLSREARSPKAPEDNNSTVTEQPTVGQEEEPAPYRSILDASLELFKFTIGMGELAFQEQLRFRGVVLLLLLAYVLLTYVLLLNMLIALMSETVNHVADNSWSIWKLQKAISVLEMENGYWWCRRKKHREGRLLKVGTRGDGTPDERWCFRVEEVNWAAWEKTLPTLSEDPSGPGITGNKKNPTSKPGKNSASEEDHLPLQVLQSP
In words: SEC. Particulars: remark: other sources report otherwise.

B1: TRPV2-MBP (wild-type TRPV2 with an N-terminal maltose binding protein tag), Q9WUD2 1-761 (natural protein)
chain: MTSASSPPAFRLETSDGDEEGNAEVNKGKQEPPPMESPFQREDRNSSPQIKVNLNFIKRPPKNTSAPSQQEPDRFDRDRLFSVVSRGVPEELTGLLEYLRWNSKYLTDSAYTEGSTGKTCLMKAVLNLQDGVNACIMPLLQIDKDSGNPKLLVNAQCTDEFYQGHSALHIAIEKRSLQCVKLLVENGADVHLRACGRFFQKHQGTCFYFGELPLSLAACTKQWDVVTYLLENPHQPASLEATDSLGNTVLHALVMIADNSPENSALVIHMYDGLLQMGARLCPTVQLEEISNHQGLTPLKLAAKEGKIEIFRHILQREFSGPYQPLSRKFTEWCYGPVRVSLYDLSSVDSWEKNSVLEIIAFHCKSPNRHRMVVLEPLNKLLQEKWDRLVSRFFFNFACYLVYMFIFTVVAYHQPSLDQPAIPSSKATFGESMLLLGHILILLGGIYLLLGQLWYFWRRRLFIWISFMDSYFEILFLLQALLTVLSQVLRFMETEWYLPLLVLSLVLGWLNLLYYTRGFQHTGIYSVMIQKVILRDLLRFLLVYLVFLFGFAVALVSLSREARSPKAPEDNNSTVTEQPTVGQEEEPAPYRSILDASLELFKFTIGMGELAFQEQLRFRGVVLLLLLAYVLLTYVLLLNMLIALMSETVNHVADNSWSIWKLQKAISVLEMENGYWWCRRKKHREGRLLKVGTRGDGTPDERWCFRVEEVNWAAWEKTLPTLSEDPSGPGITGNKKNPTSKPGKNSASEEDHLPLQVLQSP
Usually stoichiometry N stands for the number of molecules, sites or subunits per partner or assembly. In the case of B1, the stoichiometry N came to 4.

For the origin of these results see PMC11580892.
